From patent US20120321699A1
Values belong to the substance of their own block, whether it stands above or below them.

Columns and labels:
HIV-1 Env gp41 (HIV-1) = test: Luminex bead assay
[1] = target: gp120 (Table 2, strain not given) (HIV-1); test: Luminex bead assay
[2] = target: Env of HIV-1 7165.18.N160K (HIV-1); test: cell-based or functional assay
[3] = target: Env of HIV-1 clade B isolate JR-CSF (HIV-1) (UniProt P20871); test: cell-based or functional assay
[4] = target: Env of HIV-1 JRCSF.N160K (HIV-1) (UniProt P20871); test: cell-based or functional assay
[5] = target: Env of HIV-1 clade B isolate 7165.18 (HIV-1); test: cell-based or functional assay
[6] = target: Env of HIV-1 clade A isolate Q23.17 (HIV-1); test: cell-based or functional assay
[7] = target: Env of HIV-1 JRFL.E168K (HIV-1); test: cell-based or functional assay
[8] = target: Env of HIV-1 Q23.17.N160K (HIV-1); test: cell-based or functional assay
[9] = target: Env of HIV-1 clade B isolate JRFL (virus) (HIV-1); test: cell-based or functional assay
[10] = target: Env of HIV-1 JRFL.N160K.E168K (HIV-1); test: cell-based or functional assay
centromere B autoantigen [11] = test: Athena assay, mAb 50 ug/ml; positive >50
SSB autoantigen [12] = test: Athena assay, mAb 50 ug/ml; positive >50
Sm autoantigen [13] = test: Athena assay, mAb 50 ug/ml; positive >50
Jo 1 autoantigen [14] = test: Athena assay, mAb 50 ug/ml; positive >50
Histone autoantigen [15] = test: Athena assay, mAb 50 ug/ml; positive >50
Scl 70 autoantigen [16] = test: Athena assay, mAb 50 ug/ml; positive >50
SSA autoantigen [17] = test: Athena assay, mAb 50 ug/ml; positive >50
RNP autoantigen [18] = test: Athena assay, mAb 50 ug/ml; positive >50
centromere B autoantigen [19] = test: Athena assay, mAb 25 ug/ml; positive >50
SSB autoantigen [20] = test: Athena assay, mAb 25 ug/ml; positive >50
Sm autoantigen [21] = test: Athena assay, mAb 25 ug/ml; positive >50
Jo 1 autoantigen [22] = test: Athena assay, mAb 25 ug/ml; positive >50
Histone autoantigen [23] = test: Athena assay, mAb 25 ug/ml; positive >50
Scl 70 autoantigen [24] = test: Athena assay, mAb 25 ug/ml; positive >50
SSA autoantigen [25] = test: Athena assay, mAb 25 ug/ml; positive >50
RNP autoantigen [26] = test: Athena assay, mAb 25 ug/ml; positive >50
centromere B autoantigen [27] = test: Athena assay, mAb 12.5 ug/ml; positive >50
SSB autoantigen [28] = test: Athena assay, mAb 12.5 ug/ml; positive >50
Sm autoantigen [29] = test: Athena assay, mAb 12.5 ug/ml; positive >50
Jo 1 autoantigen [30] = test: Athena assay, mAb 12.5 ug/ml; positive >50
Histone autoantigen [31] = test: Athena assay, mAb 12.5 ug/ml; positive >50
Scl 70 autoantigen [32] = test: Athena assay, mAb 12.5 ug/ml; positive >50
SSA autoantigen [33] = test: Athena assay, mAb 12.5 ug/ml; positive >50
RNP autoantigen [34] = test: Athena assay, mAb 12.5 ug/ml; positive >50
[35] = target: HV00044 (6240 TZ5 140C) (HIV-1); test: SPR
[36] = target: A244gD+ gp120 (herpes simplex virus; HIV-1); test: SPR
[37] = target: HV00043 (63521 TC21 140C) (HIV-1); test: SPR
HCV E2 (HCV) = test: Luminex assay, antibody 50 µg/ml
[38] = target: Influenza HA (Wisconsin) (influenza virus); test: Luminex assay, antibody 50 µg/ml
centromere B autoantigen [39] = test: Athena assay, mAb 6.25 ug/ml; positive >50
SSB autoantigen [40] = test: Athena assay, mAb 6.25 ug/ml; positive >50
Sm autoantigen [41] = test: Athena assay, mAb 6.25 ug/ml; positive >50
Jo 1 autoantigen [42] = test: Athena assay, mAb 6.25 ug/ml; positive >50
Histone autoantigen [43] = test: Athena assay, mAb 6.25 ug/ml; positive >50
Scl 70 autoantigen [44] = test: Athena assay, mAb 6.25 ug/ml; positive >50
SSA autoantigen [45] = test: Athena assay, mAb 6.25 ug/ml; positive >50
RNP autoantigen [46] = test: Athena assay, mAb 6.25 ug/ml; positive >50

Reactivity in Luminex Units (Luminex Units) (HIV-1 Env gp41 (HIV-1)): 1430
Substance: 17b original CCR5 binding site antibody

Substance: 2F5 (antibody)
Reactivity in Luminex Units (Luminex Units) (HIV-1 Env gp41 (HIV-1)): 32700
Reactivity in Luminex Units (Luminex Units) [1]: 9240

Substance: PG9 (antibody)
IC50 ug/ml (virus neutralization) [2]: > 50 µg/mL
IC80 ug/ml (virus neutralization) [2]: > 50 µg/mL
IC50 ug/ml (virus neutralization) [3]: 0.003 µg/mL
IC80 ug/ml (virus neutralization) [3]: 8 ng/mL
IC50 ug/ml (virus neutralization) [4]: > 50 µg/mL
IC80 ug/ml (virus neutralization) [4]: > 50 µg/mL
IC50 ug/ml (virus neutralization) [5]: > 50 µg/mL
IC80 ug/ml (virus neutralization) [5]: > 50 µg/mL
IC50 ug/ml (virus neutralization) [6]: 0.002 µg/mL
IC80 ug/ml (virus neutralization) [6]: 5 ng/mL
IC50 ug/ml (virus neutralization) [7]: 0.008 µg/mL
IC80 ug/ml (virus neutralization) [7]: 0.055 µg/mL
IC50 ug/ml (virus neutralization) [8]: > 50 µg/mL
IC80 ug/ml (virus neutralization) [8]: > 50 µg/mL
IC50 ug/ml (virus neutralization) [9]: > 50 µg/mL
IC80 ug/ml (virus neutralization) [9]: > 50 µg/mL
IC50 ug/ml (virus neutralization) [10]: > 50 µg/mL
IC80 ug/ml (virus neutralization) [10]: > 50 µg/mL
Autoreactivity (Athena) (centromere B autoantigen [11]): 5
Autoreactivity (Athena) (SSB autoantigen [12]): 5
Autoreactivity (Athena) (Sm autoantigen [13]): 2
Autoreactivity (Athena) (Jo 1 autoantigen [14]): 1
Autoreactivity (Athena) (Histone autoantigen [15]): 7
Autoreactivity (Athena) (Scl 70 autoantigen [16]): 2
Autoreactivity (Athena) (SSA autoantigen [17]): 5
Autoreactivity (Athena) (RNP autoantigen [18]): 3
Autoreactivity (Athena) (centromere B autoantigen [19]): 5
Autoreactivity (Athena) (SSB autoantigen [20]): 6
Autoreactivity (Athena) (Sm autoantigen [21]): 3
Autoreactivity (Athena) (Jo 1 autoantigen [22]): 2
Autoreactivity (Athena) (Histone autoantigen [23]): 9
Autoreactivity (Athena) (Scl 70 autoantigen [24]): 1
Autoreactivity (Athena) (SSA autoantigen [25]): 5
Autoreactivity (Athena) (RNP autoantigen [26]): 2
Autoreactivity (Athena) (centromere B autoantigen [27]): 4
Autoreactivity (Athena) (SSB autoantigen [28]): 4
Autoreactivity (Athena) (Sm autoantigen [29]): 3
Autoreactivity (Athena) (Jo 1 autoantigen [30]): 2
Autoreactivity (Athena) (Histone autoantigen [31]): 6
Autoreactivity (Athena) (Scl 70 autoantigen [32]): 2
Autoreactivity (Athena) (SSA autoantigen [33]): 5
Autoreactivity (Athena) (RNP autoantigen [34]): 2
Kd [35]: 210 nM
Kd [36]: 4.8 nM
Kd [37]: 0.75 nM
background substracted RFUs (HCV E2 (HCV)): 0 RFU
background substracted RFUs [38]: 0 RFU
Autoreactivity (Athena) (centromere B autoantigen [39]): 4
Autoreactivity (Athena) (SSB autoantigen [40]): 4
Autoreactivity (Athena) (Sm autoantigen [41]): 2
Autoreactivity (Athena) (Jo 1 autoantigen [42]): 2
Autoreactivity (Athena) (Histone autoantigen [43]): 5
Autoreactivity (Athena) (Scl 70 autoantigen [44]): 2
Autoreactivity (Athena) (SSA autoantigen [45]): 4
Autoreactivity (Athena) (RNP autoantigen [46]): 3

Substance: PG16 (antibody)
IC50 ug/ml (virus neutralization) [2]: > 50 µg/mL
IC80 ug/ml (virus neutralization) [2]: > 50 µg/mL
IC50 ug/ml (virus neutralization) [3]: 0.003 µg/mL
IC80 ug/ml (virus neutralization) [3]: 12 ng/mL
IC50 ug/ml (virus neutralization) [4]: > 50 µg/mL
IC80 ug/ml (virus neutralization) [4]: > 50 µg/mL
IC50 ug/ml (virus neutralization) [5]: 11.8 µg/mL
IC80 ug/ml (virus neutralization) [5]: > 50 µg/mL
IC50 ug/ml (virus neutralization) [6]: 0.001 µg/mL
IC80 ug/ml (virus neutralization) [6]: 3 ng/mL
IC50 ug/ml (virus neutralization) [7]: 0.003 µg/mL
IC80 ug/ml (virus neutralization) [7]: 0.015 µg/mL
IC50 ug/ml (virus neutralization) [8]: > 50 µg/mL
IC80 ug/ml (virus neutralization) [8]: > 50 µg/mL
IC50 ug/ml (virus neutralization) [9]: > 50 µg/mL
IC80 ug/ml (virus neutralization) [9]: > 50 µg/mL
IC50 ug/ml (virus neutralization) [10]: > 50 µg/mL
IC80 ug/ml (virus neutralization) [10]: > 50 µg/mL
Autoreactivity (Athena) (centromere B autoantigen [11]): 3
Autoreactivity (Athena) (SSB autoantigen [12]): 2
Autoreactivity (Athena) (Sm autoantigen [13]): 0
Autoreactivity (Athena) (Jo 1 autoantigen [14]): 0
Autoreactivity (Athena) (Histone autoantigen [15]): 2
Autoreactivity (Athena) (Scl 70 autoantigen [16]): 1
Autoreactivity (Athena) (SSA autoantigen [17]): 4
Autoreactivity (Athena) (RNP autoantigen [18]): 2
Autoreactivity (Athena) (centromere B autoantigen [27]): 4
Autoreactivity (Athena) (SSB autoantigen [28]): 4
Autoreactivity (Athena) (Sm autoantigen [29]): 2
Autoreactivity (Athena) (Jo 1 autoantigen [30]): 1
Autoreactivity (Athena) (Histone autoantigen [31]): 8
Autoreactivity (Athena) (Scl 70 autoantigen [32]): 1
Autoreactivity (Athena) (SSA autoantigen [33]): 4
Autoreactivity (Athena) (RNP autoantigen [34]): 3
Kd [35]: 110 nM
Kd [36]: 450 nM
Kd [37]: 160 nM
background substracted RFUs (HCV E2 (HCV)): 0 RFU
background substracted RFUs [38]: 0 RFU
Autoreactivity (Athena) (centromere B autoantigen [39]): 5
Autoreactivity (Athena) (SSB autoantigen [40]): 5
Autoreactivity (Athena) (Sm autoantigen [41]): 2
Autoreactivity (Athena) (Jo 1 autoantigen [42]): 2
Autoreactivity (Athena) (Histone autoantigen [43]): 8
Autoreactivity (Athena) (Scl 70 autoantigen [44]): 2
Autoreactivity (Athena) (SSA autoantigen [45]): 5
Autoreactivity (Athena) (RNP autoantigen [46]): 2

Reactivity in Luminex Units (Luminex Units) [1]: 5110
Substance: 1b12 original (antibody)
